Tests used:
[1] = tested on: microglial cultures isolated from the retina and brain or the BV2 cells; test: COX2 immunostaining in LPS-treated microglial cultures (retina, brain, BV2 cells); format: cell-based, mouse; details: IGFBPL1 added 6 hr after LPS
Experimental: For primary retinal microglia isolation, microglia cells were isolated from mice retina using magnetic CD11b microbead (BD, 558013). The purification protocol was following manufacture's instructions. Briefly, the papain dissociated retinal cells were resuspended into diluted BD IMag™ Buffer (BD, Cat. No. 552362). After 6-8 mins washing at 300 g, 50 ul of magnetic CD11b microbeads were added for every 10^7 total cells and then incubated for 30 mins at 6-12° C. Then bring the BD IMag-particle labeling volume up to 1-8×10^7 cells/ml with 1×BD IMag™ buffer, and immediately place the tube on the Cell Separation Magnet (BD, Cat. No. 552311). Carefully aspirate off the supernatant after 6-8 minutes incubation at room temperature, and then repeat two times washing. The positive fractions left in the tube were then collected for culture. Around 3000 cells per well were seeded in 8-well Nunc® Lab-Tek™ II Chamber Slide™ (Thermo Scientific, Cat. No. 154534PK). The isolated microglial cells were cultured at 37° C. with 5% C02 in DMEM with 10% FBS and 50 ng/ml rmCSF1 (PeproTech, Cat. No. 315-02).
For primary mouse brain microglia isolation, we optimized our protocol based previously reported protocol^2. First step was to collect brain after perfusing mice with saline. […]

BV2 microglia = test: Western blot of PI3K phosphorylation in BV2 microglia; format: cell-based, mouse
Experimental: For WB, mouse BV2 cell line was used in this study. It was purchased from ATCC (CRL-2469), and was cultured in DMEM (Thermo Fisher Scientific, Cat. No. 11885084) supplemented with 10% FBS at 37° C. with 5% C02. The medium was changed every 3 days. Cells were then seeded onto 6-well plates and stimulated with LPS (Sigma, Cat #L6529-1MG) for 6 hours and followed by IGFBPL1 (400 ng/ml, R&D system, 4130-BL) and/or IGF1 analog (10 uM, BACHEM, H-1356, Cat. No. 4018631) or NBI-31772 (10 μM, EMD Millipore, Cat. No. 479830). Cells were harvested 48 hrs for following western blotting.
WB was performed as previously noted^29. Cell or tissue samples were sonicated in a cold RIPA buffer supplemented with a 1:100 FAST protease inhibitor (S8830, Sigma-Aldrich, St Louis, MO, USA). […] The total Protein concentration of resulting supernatants was determined using the Qubit 4 Fluorometer (Thermo Fisher Scientific, Waltham, MA, USA). […] Signals were developed with ECL using a Super Signal West Pico kit (Thermo Fisher Scientific, Waltham, MA, USA) and detected with iBright CL 1500 (Thermo Fisher Scientific, Waltham, MA, USA). […] All the quantification results were averaged from three protein blots and expressed as the mean ratio of the values (target protein/housekeeping protein)±standard deviation (SD). […]

B1: IGFBPL1: insulin-like growth factor binding protein like protein 1; recombinant protein (R&D system, 4130-BL) (protein)
chain: LGLRDAGRRHPECSPCQQDRCPAPSPCPAPWISARDECGCCARCLGAEGASCGGPVGSRCGPGLVCASRASGTAPEGTGLCVCAQRGAVCGSDGRSYSSICALRLRARHAPRAHHGHLHKARDGPCEFAPVVLMPPRDIHNVTGTQVFLSCEVKAVPTPVITWKKVKHSPEGTEGLEELPGDHVNIAVQVRGGPSDHETTSWILINPLRKEDEGVYHCHAANAIGEAQSHGTVTVLDLNRYKSLYSSVPGDLL
**Q.** What does the source list for B1?
**A.** LPS-induced COX2 upregulation [1]: suppressed; Increase in PI3K phosphorylation (BV2 microglia; IGFBPL1 added 6 hr after LPS challenge): 8 fold; PI3K signaling, individual treatment (BV2 microglia; IGFBPL1 alone, no LPS): did not alter PI3K signaling
